The values that follow come from paper PMC3040440 (Journal of immunology (Baltimore, Md. : 1950), 2010).

The assay has as its target hCD40-P227A, gain-of-function polymorphism of the human CD40 receptor (human, UniProt P25942 21-277, P227A). Briefly: co-IP.

Sequence of hCD40-P227A, gain-of-function polymorphism of the human CD40 receptor (P25942 21-277 P227A): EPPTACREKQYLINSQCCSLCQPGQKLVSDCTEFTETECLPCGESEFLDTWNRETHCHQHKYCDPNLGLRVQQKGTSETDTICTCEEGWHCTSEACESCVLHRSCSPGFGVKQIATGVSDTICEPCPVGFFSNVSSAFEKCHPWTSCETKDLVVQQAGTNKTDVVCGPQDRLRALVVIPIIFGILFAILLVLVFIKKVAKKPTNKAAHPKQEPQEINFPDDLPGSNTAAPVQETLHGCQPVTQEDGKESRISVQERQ

B1: TNF receptor associated factor 3 (TRAF3) (natural protein, mouse (endogenous in CH12.LX), UniProt Q60803 1-567, looked up)
chain: MESSKKMDAAGTLQPNPPLKLQPDRGAGSVLVPEQGGYKEKFVKTVEDKYKCEKCRLVLCNPKQTECGHRFCESCMAALLSSSSPKCTACQESIIKDKVFKDNCCKREILALQVYCRNEGRGCAEQLTLGHLLVHLKNECQFEELPCLRADCKEKVLRKDLRDHVEKACKYREATCSHCKSQVPMIKLQKHEDTDCPCVVVSCPHKCSVQTLLRSELSAHLSECVNAPSTCSFKRYGCVFQGTNQQIKAHEASSAVQHVNLLKEWSNSLEKKVSLLQNESVEKNKSIQSLHNQICSFEIEIERQKEMLRNNESKILHLQRVIDSQAEKLKELDKEIRPFRQNWEEADSMKSSVESLQNRVTELESVDKSAGQAARNTGLLESQLSRHDQMLSVHDIRLADMDLRFQVLETASYNGVLIWKIRDYKRRKQEAVMGKTLSLYSQPFYTGYFGYKMCARVYLNGDGMGKGTHLSLFFVIMRGEYDALLPWPFKQKVTLMLMDQGSSRRHLGDAFKPDPNSSSFKKPTGEMNIASGCPVFVAQTVLENGTYIKDDTIFIKVIVDTSDLPDP
In the case of B1, the “fold bound relative to Wt-hCD40” value stood at 2 fold.

B2: TNF receptor associated factor 5 (TRAF5) (natural protein, mouse (endogenous in CH12.LX), UniProt P70191 1-558, looked up)
chain: MAHSEEQAAVPCAFIRQNSGNSISLDFEPDTEYQFVEQLEERYKCAFCHSVLHNPHQTGCGHRFCQQCIRSLRELNSVPICPVDKEVIKPQEVFKDNCCKREVLNLHVYCKNAPGCNARIILGRFQDHLQHCSFQAVPCPNESCREAMLRKDVKEHLSAYCRFREEKCLYCKRDIVVTNLQDHEENSCPAYPVSCPNRCVQTIPRARVNEHLTVCPEAEQDCPFKHYGCTVKGKRGNLLEHERAALQDHMLLVLEKNYQLEQRISDLYQSLEQKESKIQQLAETVKKFEKELKQFTQMFGRNGTFLSNVQALTSHTDKSAWLEAQVRQLLQIVNQQPSRLDLRSLVDAVDSVKQRITQLEASDQRLVLLEGETSKHDAHINIHKAQLNKNEERFKQLEGACYSGKLIWKVTDYRVKKREAVEGHTVSVFSQPFYTSRCGYRLCARAYLNGDGSGKGTHLSLYFVVMRGEFDSLLQWPFRQRVTLMLLDQSGKKNHIVETFKADPNSSSFKRPDGEMNIASGCPRFVSHSTLENSKNTYIKDDTLFLKVAVDLTDLEDL
For B2, the “fold bound relative to Wt-hCD40” value is 2 fold.
